Measured values as given in the supplement of paper PMC10567573.

B1: MTMR15 (parent)
chain: YVKAKKSIDKDEEFAGSSPQSSKS
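Note: lentivirally expressed fusions sorted by FACS into six bins by GFP to DsRed ratio, PSI derived from sequencing read proportions per bin multiplied by bin number.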

Variants of: B1
Assay: protein stability index of a GFP-peptide fusion (GPS, HEK-293T) (PSI 1-6); higher = more stable
Settings: c terminus: a fixed tail appended
Variant YVKAKKSIDKDEEFAGSSPQDSKS [S21D] has a protein stability index of 3.31. YVKAKKSIDKDEEFAGSSPQTSKS [S21T] showed a protein stability index of 3.1. Variant YVKAKKSIDKDEEFAGSSPQKSKS [S21K] has a protein stability index of 2.92. With YVKAKKSIDKDEEFAGSSPQESKS [S21E] the protein stability index was 3.3. Variant YVKAKKSIDKDEEFAGSSPQISKS [S21I] has a protein stability index of 2.67. Work on YDKAKKSIDKDEEFAGSSPQSSKS [V2D] yielded a protein stability index of 5.5. Work on YPKAKKSIDKDEEFAGSSPQSSKS [V2P] yielded a protein stability index of 4.76. Variant YLKAKKSIDKDEEFAGSSPQSSKS [V2L] has a protein stability index of 4.84. YFKAKKSIDKDEEFAGSSPQSSKS [V2F] showed a protein stability index of 4.74. YTKAKKSIDKDEEFAGSSPQSSKS [V2T] showed a protein stability index of 5.08. YKKAKKSIDKDEEFAGSSPQSSKS [V2K] showed a protein stability index of 5.26. For YVGAKKSIDKDEEFAGSSPQSSKS [K3G], the protein stability index was 2.27. YVNAKKSIDKDEEFAGSSPQSSKS [K3N] gave a protein stability index of 3.52. Variant YVCAKKSIDKDEEFAGSSPQSSKS [K3C] has a protein stability index of 3.3. YVQAKKSIDKDEEFAGSSPQSSKS [K3Q] showed a protein stability index of 3.31. In the case of YVSAKKSIDKDEEFAGSSPQSSKS [K3S], the protein stability index is reported as 2.76. Work on YVDAKKSIDKDEEFAGSSPQSSKS [K3D] yielded a protein stability index of 3.96. Variant YVRAKKSIDKDEEFAGSSPQSSKS [K3R] has a protein stability index of 2.4. With YVEAKKSIDKDEEFAGSSPQSSKS [K3E] the protein stability index was 3.48. Variant YVKAKKSIDKDEEFAGSVPQSSKS [S18V] has a protein stability index of 3.38. With YVKAKKSIDKDEEFAGSAPQSSKS [S18A] the protein stability index was 2.99. For YVKAKKSIDKDEEFAGSTPQSSKS [S18T], the protein stability index was 2.64. Work on YVKAKKSIDKDEEFAGSIPQSSKS [S18I] yielded a protein stability index of 3.66. YVKAKKSIDKDEEFAGSRPQSSKS [S18R] gave a protein stability index of 3.13. For YVKAKKSIDKDEEFAGSWPQSSKS [S18W], the protein stability index was 1.7. With YVKAKKSIDKDEEFAGSKPQSSKS [S18K] the protein stability index was 3.04. With YVKAKKSQDKDEEFAGSSPQSSKS [I8Q] the protein stability index was 3.3. Variant YVKAKKSDDKDEEFAGSSPQSSKS [I8D] has a protein stability index of 3.7. YVKAKKSGDKDEEFAGSSPQSSKS [I8G] gave a protein stability index of 3.64. Variant YVKAKKSSDKDEEFAGSSPQSSKS [I8S] has a protein stability index of 3.55. YVKAKKSTDKDEEFAGSSPQSSKS [I8T] showed a protein stability index of 3.22. With YVKAKKSFDKDEEFAGSSPQSSKS [I8F] the protein stability index was 2.81. With YVKAKKSWDKDEEFAGSSPQSSKS [I8W] the protein stability index was 3.22. For YVKAKKSVDKDEEFAGSSPQSSKS [I8V], the protein stability index was 2.97. For YVKAKKSIDKDEEFAGRSPQSSKS [S17R], the protein stability index was 2.91. Variant YVKAKKSIDKDEEFAGGSPQSSKS [S17G] has a protein stability index of 3.17. In the case of YVKAKKSIDKDEEFAGDSPQSSKS [S17D], the protein stability index is reported as 3.03. In the case of YVKAKKSIDKDEEFAGFSPQSSKS [S17F], the protein stability index is reported as 1.79. With YVKAKKSIDKDEEFAGTSPQSSKS [S17T] the protein stability index was 3.29. YVKAKKSIDKDEEFAGISPQSSKS [S17I] showed a protein stability index of 2.96. YVKAKKSIDKDEEFAGCSPQSSKS [S17C] gave a protein stability index of 3.01. In the case of YVKAKKSIDKDEEFAGLSPQSSKS [S17L], the protein stability index is reported as 2.93. In the case of YVKAKKSIDKDEEFAGKSPQSSKS [S17K], the protein stability index is reported as 3.21. With YVKAKKSIDKDEEFAGVSPQSSKS [S17V] the protein stability index was 2.35. Variant YVKHKKSIDKDEEFAGSSPQSSKS [A4H] has a protein stability index of 3.51. With YVKWKKSIDKDEEFAGSSPQSSKS [A4W] the protein stability index was 1.8. Work on YVKIKKSIDKDEEFAGSSPQSSKS [A4I] yielded a protein stability index of 3.24.
